Assay results from the supplement of paper PMC10065799, “High-throughput profiling of sequence recognition by tyrosine kinases and SH2 domains using bacterial peptide display” (eLife, 2023).

Assays:
FGFR1 = FGFR1 (UniProt P11362); experiment: phosphorylation enrichment, bacterial display (enrichment ratio); higher = better substrate or ligand; peptides without Tyr show the background
c-Src = experiment: as above
Fes = Fes (UniProt P07332); experiment: as above
AncSZ = experiment: as above
FGFR3 = FGFR3 (UniProt P22607); experiment: as above
FGFR3, sequence (P22607 whole entry, looked up): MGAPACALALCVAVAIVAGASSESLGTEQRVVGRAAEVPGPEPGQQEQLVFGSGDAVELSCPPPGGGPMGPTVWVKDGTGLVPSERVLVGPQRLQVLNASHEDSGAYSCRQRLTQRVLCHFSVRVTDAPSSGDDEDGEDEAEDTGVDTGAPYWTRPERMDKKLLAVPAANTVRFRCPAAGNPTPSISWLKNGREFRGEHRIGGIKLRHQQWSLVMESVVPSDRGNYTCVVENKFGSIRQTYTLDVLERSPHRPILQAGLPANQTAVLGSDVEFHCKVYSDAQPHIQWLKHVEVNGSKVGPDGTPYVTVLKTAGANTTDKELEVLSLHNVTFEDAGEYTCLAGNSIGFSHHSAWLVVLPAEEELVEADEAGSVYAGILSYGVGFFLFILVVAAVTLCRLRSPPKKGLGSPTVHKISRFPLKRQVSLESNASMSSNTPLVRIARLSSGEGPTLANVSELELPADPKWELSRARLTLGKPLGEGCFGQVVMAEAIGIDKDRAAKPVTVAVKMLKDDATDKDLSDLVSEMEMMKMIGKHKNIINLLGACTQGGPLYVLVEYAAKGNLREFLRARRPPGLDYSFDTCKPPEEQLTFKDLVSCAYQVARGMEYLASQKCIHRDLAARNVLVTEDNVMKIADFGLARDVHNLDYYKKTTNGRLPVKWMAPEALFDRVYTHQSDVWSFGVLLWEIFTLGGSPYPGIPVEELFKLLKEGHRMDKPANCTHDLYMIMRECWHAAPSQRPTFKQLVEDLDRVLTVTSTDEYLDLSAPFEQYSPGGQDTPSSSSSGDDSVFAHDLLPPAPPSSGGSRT

Fyn = Fyn (UniProt P06241); experiment: as above
Fyn, sequence (P06241 whole entry, looked up): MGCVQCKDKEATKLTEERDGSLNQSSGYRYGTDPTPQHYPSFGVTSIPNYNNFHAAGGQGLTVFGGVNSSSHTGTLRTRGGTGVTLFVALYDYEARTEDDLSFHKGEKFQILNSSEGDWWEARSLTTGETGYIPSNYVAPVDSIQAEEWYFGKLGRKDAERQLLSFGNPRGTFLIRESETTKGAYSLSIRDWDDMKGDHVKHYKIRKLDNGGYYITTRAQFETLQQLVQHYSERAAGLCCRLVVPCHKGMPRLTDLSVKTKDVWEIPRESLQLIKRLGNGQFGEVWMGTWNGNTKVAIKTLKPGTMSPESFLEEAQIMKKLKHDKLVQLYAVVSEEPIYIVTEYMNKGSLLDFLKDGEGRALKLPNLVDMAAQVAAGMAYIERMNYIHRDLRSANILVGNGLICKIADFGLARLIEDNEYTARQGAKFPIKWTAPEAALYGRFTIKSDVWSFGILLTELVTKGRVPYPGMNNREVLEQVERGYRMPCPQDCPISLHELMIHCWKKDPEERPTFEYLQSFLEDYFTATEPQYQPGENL

Fer (mouse) = experiment: as above
EPHB1 = EPHB1 (UniProt P54762); experiment: as above
EPHB1, sequence (P54762 whole entry, looked up): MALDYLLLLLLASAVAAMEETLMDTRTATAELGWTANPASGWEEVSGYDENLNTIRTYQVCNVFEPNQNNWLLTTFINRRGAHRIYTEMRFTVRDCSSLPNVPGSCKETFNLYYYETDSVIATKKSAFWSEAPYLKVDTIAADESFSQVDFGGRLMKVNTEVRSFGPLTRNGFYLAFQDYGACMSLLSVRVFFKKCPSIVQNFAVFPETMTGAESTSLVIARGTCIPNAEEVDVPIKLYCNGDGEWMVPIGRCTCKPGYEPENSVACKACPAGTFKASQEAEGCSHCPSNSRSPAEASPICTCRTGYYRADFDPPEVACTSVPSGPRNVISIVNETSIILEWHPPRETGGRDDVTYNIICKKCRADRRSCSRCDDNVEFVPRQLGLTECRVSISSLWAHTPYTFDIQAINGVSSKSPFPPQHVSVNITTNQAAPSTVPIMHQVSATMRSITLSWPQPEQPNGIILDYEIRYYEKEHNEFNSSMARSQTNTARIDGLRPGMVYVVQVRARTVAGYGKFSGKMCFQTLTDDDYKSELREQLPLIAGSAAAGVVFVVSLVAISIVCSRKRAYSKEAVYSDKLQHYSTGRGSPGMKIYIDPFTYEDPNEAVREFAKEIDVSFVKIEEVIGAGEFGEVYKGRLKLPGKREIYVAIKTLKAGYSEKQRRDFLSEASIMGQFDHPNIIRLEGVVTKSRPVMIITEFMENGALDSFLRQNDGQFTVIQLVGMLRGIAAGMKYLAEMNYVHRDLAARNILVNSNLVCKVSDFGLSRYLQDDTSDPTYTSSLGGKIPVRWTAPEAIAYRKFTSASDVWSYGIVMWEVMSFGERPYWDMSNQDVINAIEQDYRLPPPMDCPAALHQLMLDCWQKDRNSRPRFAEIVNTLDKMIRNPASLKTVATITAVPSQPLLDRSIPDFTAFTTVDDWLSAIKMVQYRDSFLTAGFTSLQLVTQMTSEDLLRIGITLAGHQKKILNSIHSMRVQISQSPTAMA

EPHB2 = EPHB2 (UniProt P29323); experiment: as above
c-Abl (mouse) = experiment: as above
Jak2 = Jak2 (UniProt O60674); experiment: as above
MERTK = MERTK (UniProt Q12866); experiment: as above
MERTK, sequence (Q12866 whole entry, looked up): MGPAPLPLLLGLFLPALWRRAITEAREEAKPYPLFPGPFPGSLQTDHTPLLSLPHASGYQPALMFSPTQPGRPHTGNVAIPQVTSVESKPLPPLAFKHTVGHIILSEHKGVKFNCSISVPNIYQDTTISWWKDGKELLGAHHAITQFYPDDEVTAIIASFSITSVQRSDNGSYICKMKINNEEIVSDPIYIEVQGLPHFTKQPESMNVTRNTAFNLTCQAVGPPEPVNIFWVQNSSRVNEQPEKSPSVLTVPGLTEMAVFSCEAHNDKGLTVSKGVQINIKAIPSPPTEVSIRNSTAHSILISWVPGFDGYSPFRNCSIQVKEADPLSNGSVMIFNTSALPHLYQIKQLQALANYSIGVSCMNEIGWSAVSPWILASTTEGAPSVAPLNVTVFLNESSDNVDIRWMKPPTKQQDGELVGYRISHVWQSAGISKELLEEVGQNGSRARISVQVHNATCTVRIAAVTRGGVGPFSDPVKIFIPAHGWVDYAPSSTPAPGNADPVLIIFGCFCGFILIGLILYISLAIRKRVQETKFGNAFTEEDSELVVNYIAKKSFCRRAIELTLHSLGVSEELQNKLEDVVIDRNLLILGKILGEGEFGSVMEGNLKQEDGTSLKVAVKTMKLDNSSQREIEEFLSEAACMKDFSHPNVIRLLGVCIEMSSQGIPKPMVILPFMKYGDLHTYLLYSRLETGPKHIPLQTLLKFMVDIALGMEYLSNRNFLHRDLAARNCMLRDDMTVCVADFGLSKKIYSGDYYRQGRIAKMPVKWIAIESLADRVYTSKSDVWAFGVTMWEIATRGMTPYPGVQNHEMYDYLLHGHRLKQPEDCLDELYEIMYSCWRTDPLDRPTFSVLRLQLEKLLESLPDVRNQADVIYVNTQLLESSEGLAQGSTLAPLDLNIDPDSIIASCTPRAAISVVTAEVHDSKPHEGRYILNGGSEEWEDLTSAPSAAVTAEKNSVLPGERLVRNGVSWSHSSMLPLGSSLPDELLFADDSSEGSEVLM

Hck = Hck (UniProt P08631); experiment: as above
c-Src SH2 = experiment: SH2 binding enrichment of the phosphorylated peptide, bacterial display (enrichment ratio); higher = better substrate or ligand; peptides without Tyr show the background
SHP2-C SH2 = experiment: as above
Grb2 SH2 = Grb2 SH2 (UniProt P62993); experiment: as above
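For SH2 binding enrichment of the phosphorylated peptide, bacterial display in this document: peptide library displayed on the E. coli surface as eCPX fusions, selected cells deep-sequenced, score is each peptide's frequency after selection divided by its frequency in the input.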
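For phosphorylation enrichment, bacterial display in this document: 11-residue human phosphosite peptides and single-mutation variants displayed on the E. coli surface, counted by deep sequencing, each peptide's frequency after selection divided by its frequency in the unselected input library; frequency after pTyr selection over input frequency; kinase dosed for 20-30% of maximal phosphorylation in three min.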

FGFR1, sequence (P11362 whole entry, looked up): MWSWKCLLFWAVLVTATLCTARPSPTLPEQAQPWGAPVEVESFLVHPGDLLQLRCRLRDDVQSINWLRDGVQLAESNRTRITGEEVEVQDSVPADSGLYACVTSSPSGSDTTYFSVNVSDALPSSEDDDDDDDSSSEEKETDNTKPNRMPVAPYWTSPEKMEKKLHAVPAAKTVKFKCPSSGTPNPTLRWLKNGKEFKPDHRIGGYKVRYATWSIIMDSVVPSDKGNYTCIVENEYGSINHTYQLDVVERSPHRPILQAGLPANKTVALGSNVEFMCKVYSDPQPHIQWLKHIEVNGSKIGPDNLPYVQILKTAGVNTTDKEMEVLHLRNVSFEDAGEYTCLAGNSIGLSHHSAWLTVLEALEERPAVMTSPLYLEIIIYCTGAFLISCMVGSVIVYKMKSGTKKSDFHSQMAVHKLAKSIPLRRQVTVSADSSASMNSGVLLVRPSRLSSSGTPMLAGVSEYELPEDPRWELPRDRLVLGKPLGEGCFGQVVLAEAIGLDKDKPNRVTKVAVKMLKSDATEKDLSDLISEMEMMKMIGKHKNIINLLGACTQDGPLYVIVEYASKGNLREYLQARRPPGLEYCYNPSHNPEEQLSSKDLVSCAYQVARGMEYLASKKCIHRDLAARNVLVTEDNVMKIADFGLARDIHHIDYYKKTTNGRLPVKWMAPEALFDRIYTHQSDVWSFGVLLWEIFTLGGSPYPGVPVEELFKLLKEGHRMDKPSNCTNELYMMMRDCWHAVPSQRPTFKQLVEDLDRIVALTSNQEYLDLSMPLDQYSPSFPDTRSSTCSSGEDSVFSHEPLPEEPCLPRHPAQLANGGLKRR
Fes, sequence (P07332 whole entry, looked up): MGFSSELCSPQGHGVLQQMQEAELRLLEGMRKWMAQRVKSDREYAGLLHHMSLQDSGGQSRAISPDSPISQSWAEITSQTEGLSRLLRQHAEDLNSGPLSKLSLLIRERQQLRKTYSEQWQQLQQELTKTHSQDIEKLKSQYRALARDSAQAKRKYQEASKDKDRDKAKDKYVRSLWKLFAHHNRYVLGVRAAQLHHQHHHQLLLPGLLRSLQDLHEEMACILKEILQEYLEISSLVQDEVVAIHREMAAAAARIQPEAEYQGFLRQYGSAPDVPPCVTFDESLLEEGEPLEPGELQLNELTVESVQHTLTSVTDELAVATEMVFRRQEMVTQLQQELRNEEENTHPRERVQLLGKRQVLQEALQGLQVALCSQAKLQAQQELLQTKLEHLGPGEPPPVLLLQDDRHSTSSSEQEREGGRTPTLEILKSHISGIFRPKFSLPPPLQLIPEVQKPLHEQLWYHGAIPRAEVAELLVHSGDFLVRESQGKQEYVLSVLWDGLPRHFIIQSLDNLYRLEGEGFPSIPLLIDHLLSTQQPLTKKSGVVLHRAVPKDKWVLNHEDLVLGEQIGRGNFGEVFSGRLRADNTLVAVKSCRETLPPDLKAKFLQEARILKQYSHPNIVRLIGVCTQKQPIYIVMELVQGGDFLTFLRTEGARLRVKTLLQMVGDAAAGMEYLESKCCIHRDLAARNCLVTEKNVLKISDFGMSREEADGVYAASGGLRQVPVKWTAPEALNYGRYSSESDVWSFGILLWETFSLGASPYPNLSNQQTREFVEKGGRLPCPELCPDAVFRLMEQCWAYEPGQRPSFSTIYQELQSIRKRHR

| Sequence | SH2 binding enrichment (c-Src SH2) | SH2 binding enrichment (SHP2-C SH2) | SH2 binding enrichment (Grb2 SH2) | phosphorylation enrichment (FGFR1) | phosphorylation enrichment (c-Src) | phosphorylation enrichment (Fes) | phosphorylation enrichment (AncSZ) | phosphorylation enrichment (FGFR3) | phosphorylation enrichment (Fyn) | phosphorylation enrichment (Fer (mouse)) | phosphorylation enrichment (EPHB1) | phosphorylation enrichment (EPHB2) | phosphorylation enrichment (c-Abl (mouse)) | phosphorylation enrichment (Jak2) | phosphorylation enrichment (MERTK) | phosphorylation enrichment (Hck) |
| --- | --- | --- | --- | --- | --- | --- | --- | --- | --- | --- | --- | --- | --- | --- | --- | --- |
| EPSLDYMVTKI [CPS1_Y768] | 0.379 | 0.914 | 1.05 | 0.814 | 0.582 | 1.14 | 1.22 | 0.797 | 0.646 | 0.78 | 0.756 | 0.727 | 0.606 | 1.05 | 0.469 | 0.566 |
| EQDRAYLEGTC [HLA-C_Y183_L180D] | 0.771 | 0.868 | 0.939 | 0.521 | 0.519 | 1.14 | 1.1 | 0.663 | 0.511 | 0.499 | 0.549 | 0.574 | 0.84 | 0.978 | 0.454 | 0.507 |
| EQLLDYTRTVQ [INPP5E_Y439_R435Q] | 0.438 | 0.732 | 0.904 | 0.515 | 0.438 | 0.815 | 0.969 | 0.709 | 0.469 | 0.494 | 0.557 | 0.569 | 0.614 | 0.976 | 0.475 | 0.542 |
| ERPGVHTNVVE [F11_Y608_Y608H] | 0.491 | 0.605 | 0.849 | 0.46 | 0.388 | 0.964 | 0.794 | 0.754 | 0.517 | 0.474 | 0.598 | 0.769 | 0.717 | 0.777 | 0.483 | 0.394 |
| ETAENYLGYTA [HSPA9_Y181_H184Y] | 0.557 | 0.7 | 0.882 | 0.748 | 0.678 | 1.23 | 1.17 | 0.784 | 0.563 | 0.498 | 0.674 | 0.684 | 0.691 | 0.839 | 0.516 | 0.751 |
| ETVHRYVELLD [AP1S3_Y87_I83T] | 24.5 | 1.94 | 0.929 | 0.591 | 0.461 | 0.997 | 0.905 | 0.746 | 0.478 | 0.435 | 0.538 | 0.654 | 0.613 | 0.752 | 0.415 | 0.52 |
| EVEPTYVVLYD [ERCC4_Y577_R576T] | 0.532 | 0.563 | 0.775 | 5.87 | 4.73 | 1.13 | 1.76 | 4.01 | 6 | 1.49 | 10.9 | 13.7 | 0.864 | 1.1 | 3.54 | 3 |
| EVESPYEVHDY [GIGYF2_Y1168] | 0.485 | 0.599 | 0.86 | 0.489 | 4.25 | 1.1 | 1.66 | 0.792 | 4.95 | 9.16 | 0.785 | 0.84 | 0.762 | 1.03 | 0.567 | 1.13 |
| EVRAQYEEIAQ [KRT76_Y361] | 22.5 | 0.623 | 0.666 | 0.611 | 0.388 | 1.22 | 1.19 | 0.98 | 0.526 | 0.977 | 0.697 | 0.641 | 0.92 | 1.07 | 0.404 | 0.614 |
| FATAGYGSLEA [EPHA10_Y959_A956T] | 0.564 | 0.933 | 0.901 | 0.52 | 0.637 | 0.94 | 0.833 | 0.663 | 0.441 | 0.37 | 0.368 | 0.45 | 0.569 | 0.691 | 0.425 | 0.437 |
| FDGKDYIALNE [HLA-A_Y147_YF] | 0.557 | 0.807 | 0.785 | 0.601 | 0.386 | 1.06 | 1.21 | 0.68 | 0.7 | 0.496 | 0.628 | 0.704 | 0.654 | 0.898 | 0.382 | 0.6 |
| FFVVRYCWLRR [MPZ_Y181_YF] | 0.499 | 0.414 | 0.604 | 0.456 | 0.5 | 0.819 | 0.767 | 0.609 | 0.495 | 0.493 | 0.483 | 0.496 | 0.623 | 0.597 | 0.564 | 0.459 |
| FGVTLYPNSGE [MEP1A_Y472_R476G] | 0.588 | 0.851 | 0.9 | 0.524 | 0.473 | 1.12 | 1.28 | 0.714 | 0.481 | 0.54 | 0.597 | 0.726 | 0.794 | 1.23 | 0.341 | 0.574 |
| FIATQYSLRPR [LBR_Y166_YF] | 0.477 | 0.973 | 1.01 | 0.532 | 0.464 | 0.671 | 0.635 | 0.471 | 0.458 | 0.399 | 0.39 | 0.518 | 0.525 | 0.551 | 0.506 | 0.454 |
| FKDGQYWIRGQ [ACSF3_Y466_R471Q] | 0.592 | 0.688 | 0.856 | 0.598 | 0.426 | 0.876 | 0.831 | 0.663 | 0.477 | 0.32 | 0.522 | 0.598 | 0.433 | 0.507 | 0.385 | 0.915 |
| FLTQHHDAKPQ [ANG_Y38_Y38H] | 0.604 | 0.669 | 0.876 | 0.447 | 0.396 | 0.742 | 0.497 | 0.451 | 0.279 | 0.468 | 0.33 | 0.381 | 0.552 | 0.464 | 0.44 | 0.353 |
| FMCKVYSDRQP [FGFR1_Y280_P283R] | 0.527 | 0.666 | 0.771 | 0.494 | 0.634 | 1.54 | 1.52 | 0.808 | 0.544 | 0.587 | 0.577 | 0.577 | 0.879 | 1.35 | 0.463 | 0.582 |

More lines, main results first:

| SH2 binding enrichment (c-Src SH2) | SH2 binding enrichment (SHP2-C SH2) | SH2 binding enrichment (Grb2 SH2) | Sequence | phosphorylation enrichment (FGFR1) | phosphorylation enrichment (c-Src) | phosphorylation enrichment (Fes) | phosphorylation enrichment (AncSZ) | phosphorylation enrichment (FGFR3) | phosphorylation enrichment (Fyn) | phosphorylation enrichment (Fer (mouse)) | phosphorylation enrichment (EPHB1) | phosphorylation enrichment (EPHB2) | phosphorylation enrichment (c-Abl (mouse)) | phosphorylation enrichment (Jak2) | phosphorylation enrichment (MERTK) | phosphorylation enrichment (Hck) |
| --- | --- | --- | --- | --- | --- | --- | --- | --- | --- | --- | --- | --- | --- | --- | --- | --- |
| 0.663 | 0.768 | 1.02 | EPNSRYTYKLE [USH2A_Y3745] | 0.438 | 0.501 | 0.895 | 0.684 | 0.534 | 0.492 | 0.27 | 0.537 | 0.46 | 0.753 | 0.628 | 0.384 | 0.439 |
| 0.597 | 0.973 | 0.895 | EQKKNYNAMKK [SCN5A_Y1495_Y1494N] | 0.643 | 0.524 | 1.07 | 0.847 | 0.826 | 0.394 | 0.538 | 0.427 | 0.561 | 1.1 | 1.01 | 0.44 | 0.489 |
| 0.85 | 1.07 | 0.818 | EQKKYYNAMKK [SCN5A_Y1495] | 0.342 | 0.34 | 0.649 | 0.551 | 0.4 | 0.3 | 0.353 | 0.368 | 0.332 | 0.519 | 0.613 | 0.305 | 0.34 |
| 0.543 | 0.629 | 0.803 | EREFKYDAHNF [OAT_Y50_G51D_YF] | 0.643 | 0.477 | 1.02 | 0.915 | 0.693 | 0.361 | 0.832 | 0.624 | 0.445 | 0.645 | 0.914 | 0.512 | 0.558 |
| 0.507 | 0.663 | 0.872 | ERRLIYTSDPK [VPS13D_Y864] | 0.486 | 0.437 | 0.64 | 0.563 | 0.372 | 0.444 | 0.43 | 0.307 | 0.431 | 0.472 | 0.586 | 0.444 | 0.39 |
| 0.464 | 0.553 | 0.758 | ESAAIYNPVIY [RHO_Y301_K296E] | 1.99 | 7.21 | 1.26 | 1.01 | 1.88 | 8.88 | 17.5 | 0.995 | 0.944 | 1.15 | 0.793 | 3.45 | 9.21 |
| 0.495 | 0.871 | 0.853 | ETEMLYGSARR [PRC1_Y464_P468R] | 0.429 | 2.81 | 0.78 | 0.886 | 0.601 | 2.66 | 1.27 | 0.416 | 0.451 | 0.638 | 0.521 | 0.38 | 4.55 |
| 0.431 | 0.821 | 0.849 | FAADFYKLLGN [ROR2_Y646_YF] | 0.365 | 0.524 | 1.01 | 1.02 | 0.66 | 0.366 | 0.366 | 0.474 | 0.512 | 0.738 | 1.16 | 0.438 | 0.484 |
| 0.424 | 0.58 | 0.953 | FADIAYNFRDG [PAH_Y166_H170D_YF] | 0.41 | 0.583 | 0.892 | 0.695 | 0.613 | 0.534 | 0.473 | 0.446 | 0.476 | 0.551 | 0.654 | 0.47 | 0.464 |
| 0.5 | 0.759 | 0.762 | FARECYSALPQ [SARS2_Y52_G51C_YF] | 1.17 | 0.702 | 1.01 | 1.66 | 1.06 | 0.671 | 0.982 | 0.55 | 0.603 | 0.726 | 0.761 | 1.18 | 2.93 |
| 0.471 | 0.742 | 0.88 | FEPWVYSLSFE [PRKDC_Y647_F649L_YF] | 0.598 | 6.52 | 1.45 | 1.27 | 0.839 | 7.08 | 1.41 | 0.607 | 1.26 | 0.672 | 1.34 | 1.35 | 4.58 |
| 0.402 | 0.923 | 0.892 | FKPENYRRLDI [VHL_Y175_V170F] | 0.414 | 0.312 | 0.738 | 0.599 | 0.544 | 0.32 | 0.376 | 0.367 | 0.425 | 0.63 | 0.747 | 0.41 | 0.383 |
